Assay results taken from patent US20240050517A1 (University of Washington, published 2024).
Positions of bridges follow the written chain, without caps; N, C: chain ends. Non-standard residues stand in square brackets, D forms with d.

B1: AP90 (Alternating Peptide #90) (designed binder)
peptide: Ac-RGE[dM]N[dL]S[dW]MNEYSGW[dT]M[dN]L[dK]MGR-NH2
SMILES: CSCC[C@H](NC(=O)[C@@H](CCCCN)NC(=O)[C@H](CC(C)C)NC(=O)[C@@H](CC(N)=O)NC(=O)[C@H](CCSC)NC(=O)[C@H](NC(=O)[C@H](Cc1c[nH]c2ccccc12)NC(=O)CNC(=O)[C@H](CO)NC(=O)[C@H](Cc1ccc(O)cc1)NC(=O)[C@H](CCC(=O)O)NC(=O)[C@H](CC(N)=O)NC(=O)[C@H](CCSC)NC(=O)[C@@H](Cc1c[nH]c2ccccc12)NC(=O)[C@H](CO)NC(=O)[C@@H](CC(C)C)NC(=O)[C@H](CC(N)=O)NC(=O)[C@@H](CCSC)NC(=O)[C@H](CCC(=O)O)NC(=O)CNC(=O)[C@H](CCCNC(=N)N)NC(C)=O)[C@H](C)O)C(=O)NCC(=O)N[C@@H](CCCNC(=N)N)C(N)=O
notes: Designed α-sheet single-turn hairpin peptide with alternating L/D residues in the strands; Made by solid phase synthesis; In the BLI assay it was loaded on an aminopropylsilane (APS) sensor tip at 180 µM; also called α1
B2: AP407 (designed binder)
peptide: Ac-RGE[dM]N[dL]C[dW]MNEYSGW[dC]M[dN]L[dK]MGR-NH2
modifications: disulfide 7-16
SMILES: CSCC[C@H](NC(=O)[C@@H](CCCCN)NC(=O)[C@H](CC(C)C)NC(=O)[C@@H](CC(N)=O)NC(=O)[C@H](CCSC)NC(=O)[C@H]1CSSC[C@H](NC(=O)[C@@H](CC(C)C)NC(=O)[C@H](CC(N)=O)NC(=O)[C@@H](CCSC)NC(=O)[C@H](CCC(=O)O)NC(=O)CNC(=O)[C@H](CCCNC(=N)N)NC(C)=O)C(=O)N[C@H](Cc2c[nH]c3ccccc23)C(=O)N[C@@H](CCSC)C(=O)N[C@@H](CC(N)=O)C(=O)N[C@@H](CCC(=O)O)C(=O)N[C@@H](Cc2ccc(O)cc2)C(=O)N[C@@H](CO)C(=O)NCC(=O)N[C@@H](Cc2c[nH]c3ccccc23)C(=O)N1)C(=O)NCC(=O)N[C@@H](CCCNC(=N)N)C(N)=O

Key:
[1] = target: T1, synthetic PSMα1 peptide (phenol soluble modulin α1) (Staphylococcus aureus, N-terminal formylation (fMet 1)); assay: BLI (BLItz), AP90 immobilized on APS tip, PSMα1 (50 µM) pre-incubated 146 h (transition region between α-sheet and β-sheet)
T1 construct: Synthetic peptide from Ontores Biotechnologies
T1 peptide: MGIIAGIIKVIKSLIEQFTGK
Procedure: (§1) All biolayer interferometry (BLI) experiments were performed on a BLItz™ biosensor system (ForteBio) using aminopropylsilane (APS) sensors. Sensors were hydrated in ddH₂O+22 μM ThT for 10 minutes prior to use. Designed peptides (dissolved in ddH₂O+22 μM ThT) were loaded onto the APS tip, a baseline was established in ddH₂O+22 μM ThT, and then the association of PSMα1 (prepped with DMSO+ddH₂O+22 μM ThT, as in the fibrillization assay at various pre-incubation times) was monitored over a period of three minutes. Dissociation was subsequently measured in ddH₂O+22 μM ThT, and the equilibrium dissociation constant (KD) was calculated using the BLItz™ analysis software (ForteBio).

[2] = target: T1, synthetic PSMα1 peptide (phenol soluble …); assay: BLI (BLItz), AP90 (180 µM) immobilized on APS tip, PSMα1 (50 µM) in solution, samples near the end of the aggregation lag phase (α-sheet-rich, about 48 h); lower end of the range; PSMα1 samples near the end of the aggregation lag phase
Procedure: as §1

[3] = target: T1, synthetic PSMα1 peptide (phenol soluble …); assay: cell-based or functional assay

Binder | drop in binding affinity against α-sheet-rich PSMα1 (end of lag phase) [1] | Kd [2] | inhibition of PSMα1 amyloid formation (ThT fluorescence), water + <1% DMSO, 30 µM PSMα1, 1:4 molar ratio PSMα1:AP90 [3] | inhibition of PSMα1 fibril formation (ThT fluorescence), LB medium + <1% DMSO, 1:4 molar ratio PSMα1:AP90 [3] | inhibition of PSMα1 amyloid formation (ThT fluorescence), water + <1% DMSO, 30 µM PSMα1, 1:3 molar ratio PSMα1:AP407 [3]
B1 | ~100 fold | 1000 to 1500 nM | 81% | 73% | 
B2 |  |  |  |  | 69%
